Results taken from patent US20220291215A1 (UNIVERSITY HEALTH NETWORK, published 2022).

Assays:
[1] = target: T1, recombinant 10x His-tagged CD4 protein (extracellular domain of human CD4, GS linker, 10x histidine tag) (human, UniProt P01730 26-390); test: biolayer interferometry
T1 construct: also called recombinant CD4; sCD4 (analyte)

[2] = target: T1, recombinant 10x His-tagged CD4 protein …; test: biolayer interferometry (Octet Red), biotinylated DP4 on streptavidin sensors, CD4 as analyte, steady-state analysis
[3] = target: T1, recombinant 10x His-tagged CD4 protein …; test: biolayer interferometry KD against the previously estimated KD >2 mM between CD4 and HLA class II

B1: biotinylated recombinant wild-type DP4 (extracellular domains of DPA1*01:03 and wild-type DPB1*04:01 with leucine zippers) (peptide-MHC)
MHC II alpha: IKADHVSTYAAFVQTHRPTGEFMFEFDEDEMFYVDLDKKETVWHLEEFGQAFSFEAQGGLANIAILNNNLNTLIQRSNHTQATNDPPEVTVFPKEPVELGQPNTLICHIDKFFPPVLNVTWLCNGELVTEGVAESLFLPRTDYSFHKFHYLTFVPSAEDFYDCRVEHWGLDQPLLKHWEAQEPIQMPETTETGGGGSLEIRAAFLRQRNTALRTEVAELEQEVQRLENEVSQYETRYGPLGGGKGSHHHHHHHHHH
MHC II beta: RATPENYLFQGRQECYAFNGTQRFLERYIYNREEFARFDSDVGEFRAVTELGRPAAEYWNSQKDILEEKRAVPDRMCRHNYELGGPMTLQRRVQPRVNVSPSKKGPLQHHNLLVCHVTDFYPGSIQVRWFLNGQEETAGVVSTNLIRNGDWTFQILVMLEMTPQQGDVYTCQVEHTSLDSPVTVEWKAQSDSARSKGGGGSLEIEAAFLERENTALETRVAELRQRVQRLRNRVSQYRTRYGPLGGGKGSGLNDIFEAQKIEWHE
notes: also called biotinylated wild-type DP4 (ligand)
- binding result [1]: no binding (tested: 26 µM)

B2: biotinylated recombinant DP4^L112W/V141M (extracellular domains of DPA1*01:03 and DPB1*04:01 L112W/V (peptide-MHC)
MHC II alpha: IKADHVSTYAAFVQTHRPTGEFMFEFDEDEMFYVDLDKKETVWHLEEFGQAFSFEAQGGLANIAILNNNLNTLIQRSNHTQATNDPPEVTVFPKEPVELGQPNTLICHIDKFFPPVLNVTWLCNGELVTEGVAESLFLPRTDYSFHKFHYLTFVPSAEDFYDCRVEHWGLDQPLLKHWEAQEPIQMPETTETGGGGSLEIRAAFLRQRNTALRTEVAELEQEVQRLENEVSQYETRYGPLGGGKGSHHHHHHHHHH
MHC II beta: RATPENYLFQGRQECYAFNGTQRFLERYIYNREEFARFDSDVGEFRAVTELGRPAAEYWNSQKDILEEKRAVPDRMCRHNYELGGPMTLQRRVQPRVNVSPSKKGPLQHHNWLVCHVTDFYPGSIQVRWFLNGQEETAGVMSTNLIRNGDWTFQILVMLEMTPQQGDVYTCQVEHTSLDSPVTVEWKAQSDSARSKGGGGSLEIEAAFLERENTALETRVAELRQRVQRLRNRVSQYRTRYGPLGGGKGSGLNDIFEAQKIEWHE
notes: also called DPR^L112/V141M; biotinylated DP4^L112W/V141M (ligand)
- Kd [2]: 8.9 µM
- fold improvement in the binding affinity [3]: ≥ 200 fold
